Here are results for 22 sequences from the supplement of paper PMC9170038.

For this series, the system named is K4 kissing-loop RNA reporter. Put plainly: apparent KD of K4 kissing-loop reporter; higher = weaker reporter binding. To be noted: Eterna round: R107. The method, then:
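RNA-MaP round R107: designed RNA switches with theophylline, tryptophan, arginine or FMN aptamers are transcribed on-chip within common flanks. They are titrated with a labelled K4 kissing-loop RNA reporter in RNA-MaP buffer (100 mM Tris pH 7.5, 80 mM KCl, 4 mM MgCl2), without ligand or with the indicated ligand. Median apparent KD per design.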

[1] abbreviates: input ligand: theophylline 20 uM.
Where [2] appears, read: input ligand: tryptophan 2.4 mM.
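Also: bound reporter read as fluorescence of individual clusters on recovered sequencing chips by microscopy, with normalized cluster intensities fitted with a binding model.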

On to “GUAAGAUGAGGAGGAGGAUGAAUUACUGAAGGAGCGCAUAUAAAUGCAGGUAGGUCGCGGUAAAGAAGUAUAGUGAUGUUAUAUA [#20 K4 Arginine A Same State]”, for which the “apparent KD of K4 kissing-loop reporter” value reads like this: (input ligand: FMN 200 uM) 452 nM; (input ligand: arginine 13.2 mM) 508 nM; (input ligand: none) 464 nM; under setting [1], 459 nM; under setting [2], 474 nM.

Consider “GUAGCACUUGGUAGUGAUGUUACCAAGGACAAGGAUAUCAUCUCAAUGAGAAGGUGUCCUUGGUAACAGCUACGGGAAUAUCCCA [Omei KL FMN A Exc D v2]”, for which the “apparent KD of K4 kissing-loop reporter” value came to 275 nM (input ligand: FMN 200 uM); 194 nM (input ligand: arginine 13.2 mM); 226 nM (input ligand: none); 242 nM under setting [1]; 246 nM under setting [2].

For the sequence “GUAGGAUGAGGAGGAGGAAGAAAUACUGAAGGAGCGCAAAGAAAUGCAGGUAGGUCGCGGUAAAGAAGUAUAGUGAUGUUAUAUA [SSArgA.C]”, the “apparent KD of K4 kissing-loop reporter” value came to 452 nM (input ligand: FMN 200 uM); 450 nM (input ligand: arginine 13.2 mM); 406 nM (input ligand: none); 411 nM under setting [1]; 373 nM under setting [2].

As for “GUAGGAUGAGGAGGAGGAUGAAUUACUGAAGGAGCGCAUAGAAAUGCAGGUAGGUCGCGGUAAAGAAGUAUAGUGAUGUUAUAUA [SSArgA.F]”, the “apparent KD of K4 kissing-loop reporter” value by setting is: (input ligand: FMN 200 uM) 421 nM; (input ligand: arginine 13.2 mM) 420 nM; (input ligand: none) 448 nM; under setting [1], 483 nM; under setting [2], 292 nM.

Regarding “GUAUCAGUGAUGUUGAUAGGCGAGCGGGAUACCAGCCAAGACUCAGGCCCUUGGCAGCCCACAUAUCCCACGUAGAUAGUAGCUC [Same State - Theophylline A (Freestyle 16)]”, the “apparent KD of K4 kissing-loop reporter” value is, setting by setting: (input ligand: FMN 200 uM) 137 nM; (input ligand: arginine 13.2 mM) 105 nM; (input ligand: none) 128 nM; under setting [1], 139 nM; under setting [2], 123 nM.

“GUAUCGCUAGGAGGAUAUUUCAAUCCGCCUAUAAUAGGUGGUACGGAGUGAUGUUCCGAUUUACGGAAAGAAGGCCUAGUGAUAC [FMN B 16]”: the “apparent KD of K4 kissing-loop reporter” value reads like this: (input ligand: FMN 200 uM) 142 nM; (input ligand: arginine 13.2 mM) 265 nM; (input ligand: none) 297 nM; under setting [1], 283 nM; under setting [2], 278 nM.

For the sequence “GUAUCGCUAGGAGGAUAUUUCAAUUCGCCUAUAAAAGGUGAUACGGAGUGAUGUUCCGAUUUACGGAAAGAAGGCCUAGUGAUAC [FMN B 9]”, the “apparent KD of K4 kissing-loop reporter” value was 137 nM (input ligand: FMN 200 uM); 259 nM (input ligand: arginine 13.2 mM); 282 nM (input ligand: none); 262 nM under setting [1]; 273 nM under setting [2].

As for “GUAUCGCUAGGAGGAUAUUUCAAUUCGCCUAUAAUAGGUGAUACGGAGUGAUGUUCCGAUUUACGGAAAGAAGGCCUAGUGAUAC [FMN B 10]”, the “apparent KD of K4 kissing-loop reporter” value was 144 nM (input ligand: FMN 200 uM); 229 nM (input ligand: arginine 13.2 mM); 244 nM (input ligand: none); 239 nM under setting [1]; 237 nM under setting [2].

Regarding “GUAUCGCUAGGAGGAUAUUUCGUUUUUCAUAGCAAUGGCUAUGCGGAGUGAUGUUCCGAUUUACCGGAAGAAGGCCUAGUGAUAC [FMN B 26]”, the “apparent KD of K4 kissing-loop reporter” value stood at 109 nM (input ligand: FMN 200 uM); 172 nM (input ligand: arginine 13.2 mM); 202 nM (input ligand: none); 205 nM under setting [1]; 165 nM under setting [2].

As to “GUCAGACCGGGACUCCAGUGAUGUUGGAGGCAGGAUAUCCAGUCGAGGAGAAGGGCCAGGGAUAUCGAGCUGCUCGGUUUGUAGU [Xexezaes]”, the “apparent KD of K4 kissing-loop reporter” value by setting is: (input ligand: FMN 200 uM) 72.4 nM; (input ligand: arginine 13.2 mM) 108 nM; (input ligand: none) 77.3 nM; under setting [1], 102 nM; under setting [2], 67.4 nM.

“GUCCACACUGCAGGAUAUGGAGGAAUAGCGAGGGAGUGUGGAAGCACACCUCUGGCAGUGAUGUUGCCAGAAGGGCGGUGCGGCG [Cemaorar]”: the “apparent KD of K4 kissing-loop reporter” value is, setting by setting: (input ligand: FMN 200 uM) 111 nM; (input ligand: arginine 13.2 mM) 75.5 nM; (input ligand: none) 76.4 nM; under setting [1], 69 nM; under setting [2], 93.4 nM.

As for “GUCCACACUGCAGGAUAUGGAGGUAUAGCGAGGGAGUUUGGAAGCACACCUCUGGCAGUGAUGUUGCCAGAAGGGCGGUGCGGCG [Rauserin]”, the “apparent KD of K4 kissing-loop reporter” value was found to be 82.4 nM (input ligand: FMN 200 uM); 89.5 nM (input ligand: arginine 13.2 mM); 99.2 nM (input ligand: none); 64.3 nM under setting [1]; 83.9 nM under setting [2].

On to “GUCCCAGUGAUGUUGGUAGGCGAGCGGGAUACCAGCGAAGACUCACGCCCUUGGCAGCCCACAUAUCCCACGUAGGGAUUAGCUC [Same State - Theophylline A (Freestyle 20)]”, for which the “apparent KD of K4 kissing-loop reporter” value by setting is: (input ligand: FMN 200 uM) 336 nM; (input ligand: arginine 13.2 mM) 359 nM; (input ligand: none) 378 nM; under setting [1], 357 nM; under setting [2], 351 nM.

For the sequence “GUCUAGCUAGCAGGAUAUAGCUGGUAGUGAUGUUACCACUAGAACUCUGCGGAAACGCAGAGUAUCCUAGAAGGGCUAGCUAGAC”, the “apparent KD of K4 kissing-loop reporter” value reads like this: (input ligand: FMN 200 uM) 95 nM; (input ligand: arginine 13.2 mM) 65 nM; (input ligand: none) 75.4 nM; under setting [1], 63.9 nM; under setting [2], 66.8 nM.

With “GUCUCAAAAGAGGCAAGCACUCACGAGGACAAGGAUAUCAUAUCAAUGAGAAGGUGUCCUCGUCCUCAGUGAUGUUGAGGAGUGC [Omei KL FMN A SS E v4]”, the “apparent KD of K4 kissing-loop reporter” value runs as follows: (input ligand: FMN 200 uM) 410 nM; (input ligand: arginine 13.2 mM) 200 nM; (input ligand: none) 247 nM; under setting [1], 233 nM; under setting [2], 257 nM.

Take “GUCUCCGUCGAUGAUACCAGUCGAUGUACGUCAGGUACCCUUUGAGUGAUGUUCAGAUUAGACCCUUGGCAGCAUAUCGAGGCUC [theeternabot_exclusion_KL_Theo_B_24]”: the “apparent KD of K4 kissing-loop reporter” value runs as follows: (input ligand: FMN 200 uM) 370 nM; (input ligand: arginine 13.2 mM) 452 nM; (input ligand: none) 514 nM; under setting [1], 444 nM; under setting [2], 303 nM.

As to “GUCUGAUGCGUUGAUACCAGUCCUUCAGUGAUGUUGCAAGCGCGGCCUAUCAAGCAAUCCGACCCUUGGCAGCAAUAGGUCCGAA [theeternabot_exclusion_KL_Theo_B_9]”, the “apparent KD of K4 kissing-loop reporter” value (input ligand: FMN 200 uM) was 892 nM; the “apparent KD of K4 kissing-loop reporter” value (input ligand: arginine 13.2 mM) came out at 568 nM; the “apparent KD of K4 kissing-loop reporter” value (input ligand: none) was determined as 850 nM; the “apparent KD of K4 kissing-loop reporter” value under setting [1] was 872 nM; the “apparent KD of K4 kissing-loop reporter” value under setting [2] is 661 nM.

In the case of “GUGAAGGAGCAGCAGUGAUGUUGCUGAGACUAGGAUAUCAGGAAACUGAGAAGGAGUCAACUCCUUCACCUAGACUGCAACAUAA [KL-SSFMN-A13]”, the “apparent KD of K4 kissing-loop reporter” value by setting is: (input ligand: FMN 200 uM) 173 nM; (input ligand: arginine 13.2 mM) 167 nM; (input ligand: none) 180 nM; under setting [1], 249 nM; under setting [2], 152 nM.

As for “GUGACACGUGAUGAUACCAGUCCACGGAAGUUCCUUAGUGAUGUUAACCUUGCUUUUUCUGACCCUUGGCAGCAUUAGUUGAGAA [theeternabot_sameState_KL_Theo_B_42]”, the “apparent KD of K4 kissing-loop reporter” value runs as follows: (input ligand: FMN 200 uM) 332 nM; (input ligand: arginine 13.2 mM) 166 nM; (input ligand: none) 204 nM; under setting [1], 304 nM; under setting [2], 237 nM.

In the case of “GUGACCUACUCAGGAUAUCCGCAGUGAUGUUGCGGUUGGCCUGAGCGACAUGAAAAUCUUACUACAGGAGAAGGGAGAGGGUUAC [Leanteti]”, the “apparent KD of K4 kissing-loop reporter” value by setting is: (input ligand: FMN 200 uM) 113 nM; (input ligand: arginine 13.2 mM) 92.7 nM; (input ligand: none) 109 nM; under setting [1], 89.2 nM; under setting [2], 91.5 nM.

In the case of “GUGACGCGGACGGCCGCCACUCCGGUGACCGCUCCGUGCCGCCCUGCGCGAGUGAUGUUCGCCAGGAGGACCGGGUCCGACUUUA [Soesente]”, the “apparent KD of K4 kissing-loop reporter” value runs as follows: (input ligand: FMN 200 uM) 107 nM; (input ligand: arginine 13.2 mM) 101 nM; (input ligand: none) 106 nM; under setting [1], 89.4 nM; under setting [2], 96.3 nM.

For the sequence “GUGCAAAGCACCGGCACGAGCAGCCUAAAGGAGGAUAUGACGAAAGUCAGAAGGUCUAGUGAUGUUAGGCCUUGCUUGAGUCGAA [Omei KL FMN A Exc B v3]”, the “apparent KD of K4 kissing-loop reporter” value came to 288 nM (input ligand: FMN 200 uM); 278 nM (input ligand: arginine 13.2 mM); 402 nM (input ligand: none); 405 nM under setting [1]; 327 nM under setting [2].
